Experimental data as given in patent US20110243967A1.

Experiments:
[1] = target: gp 70 (mouse)
[2] = target: pMCMV-loaded H-2 L^d (mouse) (UniProt P01897)
[3] = target: serologically reactive H-2 L^d on RENCA cells (murine) (UniProt P01897); experiment: flow cytometry on unstimulated RENCA cells
[4] = target: serologically reactive H-2 L^d on RENCA cells (murine) (UniProt P01897); experiment: flow cytometry on γ-IFN stimulated RENCA cells (5-50 units/ml)
[5] = target: QL9-loaded H-2 L^d (mouse) (UniProt P01897); experiment: flow cytometry on L^d cells loaded with graded peptide concentrations
[6] = target: p2Ca-loaded H-2 L^d (mouse) (UniProt P01897); experiment: as above
[7] = target: QL9-loaded H-2 L^d (mouse) (UniProt P01897); experiment: flow cytometry on peptide-loaded RMA-S L^d cells; mAb 30.5.7 then PE-labelled goat anti-mouse IgG
[8] = target: SL9-loaded H-2 L^d (mouse) (UniProt P01897); experiment: as above
[9] = target: p2Ca-loaded H-2 L^d (mouse) (UniProt P01897); experiment: as above
[10] = target: tum (mouse); experiment: as above
[11] = target: unloaded H-2 L^d on RMA-S L^d cells (mouse) (UniProt P01897); experiment: flow cytometry on RMA-S L^d cells, no peptide, bar '37 degrees'; mAb 30.5.7 then PE-labelled goat anti-mouse IgG
[12] = target: unloaded H-2 L^d on RMA-S L^d cells (mouse) (UniProt P01897); experiment: flow cytometry on RMA-S L^d cells, no peptide, bar '22 degrees' (the legend says 27°C); mAb 30.5.7 then PE-labelled goat anti-mouse IgG
[13] = target: QL9-loaded H-2 L^d (mouse) (UniProt P01897); experiment: flow cytometry, serial dilutions on QL9-loaded RMA-S L^d cells, detection with H57-FITC
[14] = target: p2Ca-loaded H-2 L^d (mouse) (UniProt P01897); experiment: flow cytometry, serial dilutions on p2Ca-loaded RMA-S L^d cells, detection with H57-FITC
[15] = target: p2Ca-loaded H-2 L^d (mouse) (UniProt P01897); experiment: competition with constant FITC-30.5.7 Fab on peptide-loaded RMA-S L^d cells, flow cytometry
[16] = target: QL9-loaded H-2 L^d (mouse) (UniProt P01897); experiment: flow cytometry on RMA-S L^d cells loaded with 100 µM peptide; two-fold dilutions of soluble monovalent 2C TCR, detected with H57-FITC
[17] = target: SIY-loaded H-2 K^bm3 (mouse); experiment: flow cytometry on peptide-loaded T2 K^bm3 cells
[18] = target: pMCMV-loaded H-2 L^d (mouse) (UniProt P01897); remark: listed apart in the source
[19] = target: QL9-loaded H-2 L^d (mouse) (UniProt P01897); experiment: flow cytometry, direct saturation of FITC-30.5.7 Fab on peptide-loaded RMA-S L^d cells
[20] = target: SL9-loaded H-2 L^d (mouse) (UniProt P01897); experiment: as above
[21] = target: p2Ca-loaded H-2 L^d (mouse) (UniProt P01897); experiment: as above

Chain of p2Ca-loaded H-2 L^d (mouse) (P01897 25-362): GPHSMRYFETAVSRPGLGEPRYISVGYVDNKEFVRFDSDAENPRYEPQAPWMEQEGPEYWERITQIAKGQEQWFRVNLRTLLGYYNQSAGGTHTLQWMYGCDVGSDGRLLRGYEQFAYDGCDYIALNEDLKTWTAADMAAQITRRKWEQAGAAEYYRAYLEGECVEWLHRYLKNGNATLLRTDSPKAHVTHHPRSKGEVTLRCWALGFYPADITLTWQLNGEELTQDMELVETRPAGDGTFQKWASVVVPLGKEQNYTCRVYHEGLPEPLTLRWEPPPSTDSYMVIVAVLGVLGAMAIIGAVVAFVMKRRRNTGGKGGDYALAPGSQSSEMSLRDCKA
Chain of QL9-loaded H-2 L^d (mouse) (P01897 25-362): as above
Chain of serologically reactive H-2 L^d on RENCA cells (murine) (P01897 25-362): as above
Chain of pMCMV-loaded H-2 L^d (mouse) (P01897 25-309): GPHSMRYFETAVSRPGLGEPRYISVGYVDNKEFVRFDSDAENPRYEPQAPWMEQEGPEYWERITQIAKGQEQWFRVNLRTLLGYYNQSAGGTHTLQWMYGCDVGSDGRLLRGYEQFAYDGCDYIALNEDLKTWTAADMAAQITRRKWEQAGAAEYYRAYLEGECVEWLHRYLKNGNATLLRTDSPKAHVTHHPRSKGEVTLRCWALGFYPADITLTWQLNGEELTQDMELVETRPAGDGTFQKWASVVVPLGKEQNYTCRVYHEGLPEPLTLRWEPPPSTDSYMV
Chain of unloaded H-2 L^d on RMA-S L^d cells (mouse) (P01897 25-309): as above
Chain of SL9-loaded H-2 L^d (mouse) (P01897 25-309): as above
Chain of soluble divalent 2C TCR/Ig (A2KF29 whole entry, looked up, tested part not stated): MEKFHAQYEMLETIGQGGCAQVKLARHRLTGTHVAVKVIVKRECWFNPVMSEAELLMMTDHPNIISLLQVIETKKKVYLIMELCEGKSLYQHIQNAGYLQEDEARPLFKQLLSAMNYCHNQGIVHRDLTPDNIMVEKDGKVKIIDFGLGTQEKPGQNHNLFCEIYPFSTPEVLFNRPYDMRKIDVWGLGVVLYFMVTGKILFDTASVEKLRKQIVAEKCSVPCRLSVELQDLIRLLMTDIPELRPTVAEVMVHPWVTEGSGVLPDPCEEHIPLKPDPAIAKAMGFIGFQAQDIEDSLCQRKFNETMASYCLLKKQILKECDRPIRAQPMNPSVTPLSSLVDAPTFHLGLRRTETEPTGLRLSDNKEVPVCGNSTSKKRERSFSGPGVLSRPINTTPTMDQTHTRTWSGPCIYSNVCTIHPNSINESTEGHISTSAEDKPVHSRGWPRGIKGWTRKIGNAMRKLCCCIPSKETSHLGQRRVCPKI

In the case of mAb 30.5.7 (antibody), the Mean Channel Fluorescence [1] is reported as 677, the Mean Channel Fluorescence [2] is reported as 648 and the MCF [3] is reported as 500. For the same substance, the MCF [4] was 2670 to 3040, the MCF [5] was 3000 and the MCF [6] was 3000. The Mean Channel Fluorescence [7] was 688, the Mean Channel Fluorescence [8] was 556 and the Mean Channel Fluorescence [9] was 693. For the same substance, the Mean Channel Fluorescence [10] was 578, the Mean Channel Fluorescence [11] was 60 and the Mean Channel Fluorescence [12] was 347.

Substance soluble monovalent 2C TCR has a concentration required to detect binding [13] greater than 100 nM, a concentration required to detect binding [14] greater than 3000 nM and a Kapp [15] greater than 2000 nM. The Kd [15] was greater than 2000 nM and the EC50 (read off the curve) [16] was 300 nM.

With “soluble divalent 2C TCR/Ig (from UniProt A2KF29)” the MCF [17] was 36.

FITC-labeled 30.5.7 Fab was tested, and the Kd [18] was 4.8 nM, the Kd [19] was 12.2 nM and the Kd [20] was 4.8 to 6.4 nM. The Kd [21] was 5.8 nM.
